The labels stand for the following.
B1: FMDV capsid protein VP3 (other)
chain: GIFPVACSDGYGGLVTTDPKTADPVYGKVFNPPRNLLPGRFTNLLDVAEACPTFLHFDGDVPYVTTKTDSDRVLAQFDLSLAAKHMSNTFLAGLAQYYTQYSGTINLHFMFTGPTDAKARYMVAYAPPGMEPPKTPEAAAHCIHAEWDTGLNSKFTFSIPYLSAADYAYTASDVAETTNVQGWVCLFQITHGKADGDALVVLASAGKDFDLRLPVDARTQ
B2: FMDV capsid protein VP1 (other)
chain: TTSAGESADPVTATVENYGGETQVQRRQHTDIAFILDRFVKVKPKEQVNVLDLMQIPAHTLVGALLRTATYYFSDLELAVKHEGDLTWVPNGAPETALDNTTNPTAYHKEPLTRLALPYTAPHRVLATVYNGSSKYGDTSTNNVRGDLQVLAQKAERTLPTSFNFGAIKATRVTELLYRMKRAETYCPRPLLAIQPSDARHKQRIVAPAKQLL

One test has as its target FMDV capsid protein VP0 (foot-and-mouth disease virus, UniProt Q6PMV1 218-504). As to the kind of experiment: size exclusion HPLC of the U1P1 protease-treated product.
The test “FMDV capsid protein VP3” addresses B1. The description is as above.

As to B1, in the test with FMDV capsid protein VP0, the binding result was “binds”.

With B2, the binding result with FMDV capsid protein VP3 and with FMDV capsid protein VP0 was “binds” each time.

The values are drawn from patent US20100183649A1 (ACADEMIA SINICA, published 2010).
